Molecular target: FMC63 protein (Example 2)
Assay: ELISA, 500 ng/well coated FMC63, fresh biotinylated fusion protein at 500 or 0.5 ng/well, 4° C.

## TNF-α:CD19 ECD fusion protein (ClonedTNFFP)
  fold increase in absorbance over wells without fusion protein: > 7 fold

Source: patent publication US20240060043A1
